The values that follow come from patent US20240294622A1 (SUZHOU TRANSCENTA THERAPEUTICS, published 2024).

A word on the EC50 (read off the curve): it is the midpoint of the concentration-response curve. Read a low EC50 (read off the curve) as greater potency. Broadly, the EC50 is the concentration giving half of the maximal effect. Low values mean greater potency, high ones weaker potency. By koff is commonly meant the rate constant with which the complex falls apart. The term kon denotes the second-order rate constant of association. As a reminder, the Kd is a measure of binding affinity in units of concentration. A lower Kd goes with higher affinity.

Experiment [1] concerns the target T1, HGREM1-His (ACRO) (human, UniProt O60565 25-184).
T1 construct: Lys25-Asp184 of NP_037504 with C-terminal polyhistidine tag (ACRO GR1-H52H3); they are put here; also called hGREM1 (ACRO); human gremlin (ACRO)
T1 sequence: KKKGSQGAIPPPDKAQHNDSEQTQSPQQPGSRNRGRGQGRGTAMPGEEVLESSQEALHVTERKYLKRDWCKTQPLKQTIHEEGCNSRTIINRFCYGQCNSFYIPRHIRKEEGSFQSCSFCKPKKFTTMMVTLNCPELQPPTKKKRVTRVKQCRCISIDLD
The experiment can be described thus: ELISA: coated BMP4, gremlin titrated (sheet title: BMP2/4/7 binding to human gremlin-his). Here is the method: (§1) Gremlin is known to be able to bind to BMP proteins and is validated by the present disclosure. Briefly, gremlin-Fc was tested for its binding ability to BMP 2/4/7 immobilized on plate. Briefly, plates were coated with […] of recombinant human BMP2, BMP4) (hBMP4, Peprotech) or human BMP7 (R&D) overnight and wild-type gremlin-1 was added to coated plates and allowed to incubate for an additional hour at RT. The plates were then washed and plate bound biotin-hGremlin was detected with neutravidin conjugated with HRP (thermo). Plates were then developed with a TMB solution and stopped by adding stop solution. The plates were read on a plate reader at 450 nm.
(In general: An ELISA detects its analyte on a solid surface through an enzyme-linked reagent.)

Experiment [2] concerns the target T2, Gremlin-Fc (human, UniProt O60565 25-184).
T2 construct: also called HGREM1-Fc (ACRO); wild-type gremlin-1
T2 sequence: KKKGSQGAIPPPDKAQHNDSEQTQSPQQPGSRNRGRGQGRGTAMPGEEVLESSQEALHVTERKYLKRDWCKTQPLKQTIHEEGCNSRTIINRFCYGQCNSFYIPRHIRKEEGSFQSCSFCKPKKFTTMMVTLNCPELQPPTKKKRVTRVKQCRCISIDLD
As to the kind of experiment: ELISA, coated BMP4 0.5 ug/ml. Here is the method: as §1

Experiment [3] addresses T2, Gremlin-Fc. The experiment can be described thus: ELISA, coated BMP2 0.5 ug/ml. Here is the method:
as §1

Experiment [4] addresses T1, HGREM1-His (ACRO). As to the kind of experiment: ELISA: coated BMP2, gremlin titrated (sheet title: BMP2/4/7 binding to human gremlin-his).
The target in experiment [5] is T3, BMP7 with his-tag (Homo sapiens (Human), UniProt P18075 293-431, Natural BMP7 is a disulfide-linked homodimer; one protomer is given. The his-tag is left out.).
T3 construct: also called BMPs (BMP2/4/7) with his-tag
T3 sequence: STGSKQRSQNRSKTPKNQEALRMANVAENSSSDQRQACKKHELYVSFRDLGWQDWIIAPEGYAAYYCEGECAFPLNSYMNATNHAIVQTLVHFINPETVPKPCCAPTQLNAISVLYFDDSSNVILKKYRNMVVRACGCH
The experiment can be described thus: ELISA: anti-human Fc coated, XM5-hFc supernatant (1:32) captured, his-tagged BMP7 titrated, anti-his-HRP.

Experiment [6] concerns the target T4, BMP2 with his-tag (Homo sapiens (Human), UniProt P12643 283-396, Natural BMP2 is a disulfide-linked homodimer; one protomer is given. The his-tag is left out.).
T4 construct: soluble his-tagged BMP used on captured XM5-Fc or Gremlin-Fc; also called BMPs (BMP2/4/7) with his-tag
The experiment can be described thus: ELISA: anti-human Fc coated, XM5-hFc supernatant (1:32) captured, his-tagged BMP2 titrated, anti-his-HRP.

Experiment [7] has as its target T5, BMP4 with his-tag (Homo sapiens (Human), UniProt P12644 293-408, Natural BMP4 is a disulfide-linked homodimer; one protomer is given. The his-tag is left out.).
T5 construct: also called BMPs (BMP2/4/7) with his-tag
T5 sequence: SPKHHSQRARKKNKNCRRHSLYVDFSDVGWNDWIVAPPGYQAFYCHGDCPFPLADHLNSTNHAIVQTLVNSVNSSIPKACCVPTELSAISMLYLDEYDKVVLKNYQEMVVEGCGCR
As to the kind of experiment: ELISA: anti-human Fc coated, XM5-hFc supernatant (1:32) captured, his-tagged BMP4 titrated, anti-his-HRP.

The target in experiment [8] is T1, HGREM1-His (ACRO). As to the kind of experiment: ELISA: antibody coated, Gremlin-his titrated, anti-his-HRP; the concentration is that of Gremlin-his. Here is the method: (§2) Using a similar ELISA protocol mentioned above, binding of chimeric antibody 14E3 to XM5 or Gremlin were tested. […] The secondary antibody anti-his-HRP was used for detection.
For experiment [9], the target named is T6, hGREM1 (source and construct not stated) (human, UniProt O60565 25-184).
T6 construct: also called Gremlin; gremlin
T6 sequence: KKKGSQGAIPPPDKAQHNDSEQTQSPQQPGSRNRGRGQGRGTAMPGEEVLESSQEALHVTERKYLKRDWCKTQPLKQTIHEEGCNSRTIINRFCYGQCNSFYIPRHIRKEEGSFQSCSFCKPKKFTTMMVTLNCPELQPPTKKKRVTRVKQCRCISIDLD
As to the kind of experiment: ELISA on hGREM1.

The target in experiment [10] is T7, XM5-his (human (hGREM1 with residues 123-143 …)).
T7 construct: Unpurified supernatant used; also called gremlin-DAN fusion protein XM5; chimeric hGREM1
T7 chain: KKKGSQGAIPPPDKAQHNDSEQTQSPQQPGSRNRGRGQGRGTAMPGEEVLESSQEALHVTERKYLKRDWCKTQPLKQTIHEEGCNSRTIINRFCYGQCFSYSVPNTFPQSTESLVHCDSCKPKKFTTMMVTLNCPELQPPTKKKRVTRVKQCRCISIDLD
As to the kind of experiment: ELISA: antibody coated, XM5-his supernatant titrated (axis: supernatant percentage, %), anti-his-HRP. Here is the method: as §2

For experiment [11], the target named is T1, HGREM1-His (ACRO). The experiment can be described thus: ELISA, binding to hGremlin-his.
Experiment [12] concerns the target T8, hGREM1 (Peprotech) (human, UniProt O60565 25-184).
T8 construct: also called biotin-hGremlin
T8 sequence: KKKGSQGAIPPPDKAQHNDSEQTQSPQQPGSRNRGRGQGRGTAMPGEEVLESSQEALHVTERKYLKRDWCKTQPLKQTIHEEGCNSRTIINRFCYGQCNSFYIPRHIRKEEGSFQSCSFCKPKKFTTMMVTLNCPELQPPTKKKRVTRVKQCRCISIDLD
The experiment can be described thus: Biacore at 25 °C, Gremlin (Peprotech) on the chip, antibody as analyte. Here is the method: (§3) HGREM1 (Peprotech) was immobilized on the Biacore sensor chip. Kinetic experiments were carried out using HBS-EP+ as both the running buffer and the sample buffer. […] Antibody-antigen association was monitored for 180 s while dissociation in buffer was monitored for 360 s. Kinetic analysis was performed using Biacore T200 evaluation software to determine Ka and Kd values. KD was calculated from the experimentally determined Ka and Kd values as KD=Kd/Ka.

Experiment [13] deals with T8, hGREM1 (Peprotech). The experiment can be described thus: SPR Biacore T200, 25 C, hGREM1 (Peprotech) immobilized, antibody 12.5-400 nM. Here is the method: as §3
(SPR reads the build-up and loss of mass on a sensor chip optically.)

The target in experiment [14] is T1, HGREM1-His (ACRO). The experiment can be described thus: competition ELISA on captured human gremlin (Acro,0.5ug/ml), lower panel: hybridoma 22F1 titrated against a fixed amount of chimeric 14E3-C, bound chimeric antibody detected. Here is the method: (§4) Epitope binning of anti-gremlin hybridoma antibodies were performed using a competition ELISA assay. Clear polystyrene plates (BEAVER) were coated with 100 μl/well of a 0.5 μg/ml hGREM1 (ACRO) in high pH coating buffer overnight at 4° C. Then the plates were washed once on an automatic plate washer using PBS+0.1% Tween 20 (Sigma). 100 μl of block solution consisting of PBS+1% BSA+1% normal goat serum+0.05% Tween 20 (Sigma) was added to each well and incubated at room temperature for 2 hours. Then 50 μl/well of 20 μg/ml saturated antibodies (hybridoma antibodies) in antibody dilution buffer (PBS+1% BSA+1% normal goat serum+0.01% Tween 20) were then added to each well of the plate and incubate for 1 hour. Then add 50 μl/well of 40 ng/ml competitive antibodies (chimeric antibodies, e.g., 14E3-C, 22F1-C, 56C11-C, and 69H5-C) to each well of the plate and incubate for another 1 hour at room temperature. […] The plates were read on a plate reader at 450 nm. The failure of the second antibody to bind in the presence of saturating quantities of the first antibody indicates the two antibodies were in the same epitope bin; the success of the second antibody to bind in the presence of the saturating quantities of the first antibody indicates the two antibodies were in different epitope bins. […]
(§5) The amount of chimeric antibody bound to gremlin were determined.

Experiment [15] has as its target T1, HGREM1-His (ACRO). The experiment can be described thus: ELISA, coated hGREM1 (ACRO). Here is the method:
(§6) Clear polystyrene plates (BEAVER) were coated with 100 μl/well of a […] hGREM1 (ACRO) and mouse gremlin (R&D) in high pH coating buffer overnight at 4° C. Then the plates were washed once on an automatic plate washer using PBS+0.1% Tween 20 (Sigma). 100 μl of block solution consisting of PBS+1% BSA+1% normal goat serum+0.5% Tween 20 (Sigma) was added to each well and incubated at room temperature for 2 hours. Then 100 μl of antibodies in antibody dilution buffer containing PBS+1% BSA+1% normal goat serum+0.01% Tween 20 starting from 2 μg/ml and then serial dilutions were added to each well of the plate and incubated for 1 hours at room temperature. Afterward the plates were washed three times with 200 μl of PBS+0.1% Tween20 followed by adding 100 μl/well 1:10000 Goat anti mouse IgG-HRP (abcam), and incubate for 1 hour at room temperature. They were then washed 3× with PBS+0.1% Tween20. Finally, 100 µl/well of TMB (Pierce) was added to each well and after several minutes add 50 μl of stop solution to each well. The plates were read on a Multiscan FC microplate reader (Thermo Scientific) at […].

Experiment [16] addresses T9, Mouse Gremlin-His (R&D) (mouse, UniProt O70326 25-184).
T9 construct: Lys25-Asp184 with 10xHis, R&D 956-GR; also called mouse gremlin (R&D); mGREM1
T9 sequence: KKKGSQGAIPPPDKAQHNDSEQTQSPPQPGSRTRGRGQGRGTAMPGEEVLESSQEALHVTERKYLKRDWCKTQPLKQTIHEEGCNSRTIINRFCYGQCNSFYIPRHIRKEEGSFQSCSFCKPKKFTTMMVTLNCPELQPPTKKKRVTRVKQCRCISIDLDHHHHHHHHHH
As to the kind of experiment: ELISA on coated Mouse Gremlin-his, anti-mouse IgG-HRP. Here is the method: as §6

Experiment [17] has as its target T1, HGREM1-His (ACRO). As to the kind of experiment: competition ELISA on captured human gremlin (Acro,0.5ug/ml), lower panel: hybridoma 22F1 titrated against a fixed amount of chimeric 22F1-C, bound chimeric antibody detected. Here is the method:
as §4, §5

B1: recombinant human BMP4 (ligand, UniProt P12644 293-408, looked up)
chain: SPKHHSQRARKKNKNCRRHSLYVDFSDVGWNDWIVAPPGYQAFYCHGDCPFPLADHLNSTNHAIVQTLVNSVNSSIPKACCVPTELSAISMLYLDEYDKVVLKNYQEMVVEGCGCR
notes: also called hBMP4
In the case of B1, the binding result in experiment [1] and in experiment [2] was “binds” in each case.

B2: recombinant human BMP2 (ligand, UniProt P12643 283-396, looked up)
chain: QAKHKQRKRLKSSCKRHPLYVDFSDVGWNDWIVAPPGYHAFYCHGECPFPLADHLNSTNHAIVQTLVNSVNSKIPKACCVPTELSAISMLYLDENEKVVLKNYQDMVVEGCGCR
notes: also called hBMP2
B2: the binding result in experiment [3] and in experiment [4] was “binds” throughout.

B3: XM5-Fc (Fc fusion, not shown: a dimerising Fc or GST)
chain: KKKGSQGAIPPPDKAQHNDSEQTQSPQQPGSRNRGRGQGRGTAMPGEEVLESSQEALHVTERKYLKRDWCKTQPLKQTIHEEGCNSRTIINRFCYGQCFSYSVPNTFPQSTESLVHCDSCKPKKFTTMMVTLNCPELQPPTKKKRVTRVKQCRCISIDLD
notes: also called gremlin 1-DAN fusion protein
Regarding B3, the binding result in experiment [5], in experiment [6] and in experiment [7] was “no binding (tested: 2.00 ug/ml)” throughout.

B4: 14E3-C (chimeric antibody of 14E3) (antibody, V domains shown)
VH: QIQLVQSGPELKKPGETVKISCKTSGSTFTTYGMAWMKQAPGKGLTWMGWINTLSGEPTYADDFKGRFAFSLKTSANTAYLQINNLKNEDAATYFCAREPMDYWGQGTSVIVSS
VL: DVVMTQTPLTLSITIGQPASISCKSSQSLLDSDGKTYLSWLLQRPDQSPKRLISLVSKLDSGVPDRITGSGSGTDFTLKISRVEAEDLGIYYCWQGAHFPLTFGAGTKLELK
notes: also called chimeric 14E3; 14E3 hIgG1
With B4, in [8], the “EC50 (read off the curve)” value is about 0.01 µg/mL. Further, a half-maximal effect in [9] (EC50) was put at 0.00524 µg/mL. The binding result in [10] is reported as “binds”. Moreover, a half-maximal response in experiment [11] (EC50) required 0.0068 µg/mL. In experiment [12], this molecule gave a koff of 0.000882 s⁻¹ and a kon of 49900 M⁻¹ s⁻¹. In addition, the Kd in experiment [13] came out at 17.7 nM.

B5: 22F1 (antibody, V domains shown)
VH: EAQLQQSGPELVKPGASVKISCKASGYSFTDYYMNWLKQSHGKSLEWIGDINPKDGDSGYSHKFKGKATLTVDKSSSTAYMELRSLTSEDSAVYYCASGFTTVVARGDYWGQGTTLTVSS
VL: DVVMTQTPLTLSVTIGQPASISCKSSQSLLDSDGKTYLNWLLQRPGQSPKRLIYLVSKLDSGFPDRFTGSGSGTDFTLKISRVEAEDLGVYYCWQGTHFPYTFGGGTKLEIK
notes: mouse hybridoma antibody; also called hybridoma 22F1
For B5, the “IC50 (read off the curve)” value in [14] and in [17] was about 0.8 µg/mL each time. For the same molecule, the EC50 in experiment [15] was 0.0141 µg/mL. Besides, the binding result in experiment [16] is given as “no binding”.
